From US20160151487A1

How the values were obtained:
[1] = target: human neonatal Fc-receptor (FcRn), soluble extracellular domain with His-Avi Tag, co-expressed with beta-2-microglobulin (human) (UniProt P55899); experiment: FcRn affinity chromatography
[2] = target: human neonatal Fc-receptor (FcRn), soluble extracellular domain with His-Avi Tag, co-expressed with beta-2-microglobulin (human) (UniProt P55899); experiment: FcRn affinity chromatography, pH gradient

| retention time on FcRn affinity column [1] [min] | Substance | other results |
| --- | --- | --- |
| 51.8 | bispecific antibody (not identified) assembled using the knobs-into-holes technology, no FcRn affecting mutation | – |
| 56.2 | bispecific antibody (not identified, knobs-into-holes), one chain with M252Y/S254T/T256E | – |
| 46.7 | bispecific antibody (not identified, knobs-into-holes), one chain with H310A/H433A/Y436A | – |
| 48.8 | bispecific antibody (not identified, knobs-into-holes), one chain with I253A | – |
| 48.4 | bispecific antibody (not identified, knobs-into-holes), one chain with H310A | – |

The remaining lines, values behind:

| Substance | retention time on FcRn affinity column [1] [min] | other results |
| --- | --- | --- |
| bispecific antibody (not identified, knobs-into-holes), one chain with H435A | 48.8 | – |
| bispecific antibody (not identified, knobs-into-holes), one chain with L251D/L314D/L432D | 46.3 | – |
| IgG1 antibody (not identified) with L234A/L235A/P329G and H435A in both Fc-region polypeptides | – | relative shift of retention time [1]: 0.3 to 0.4 min |
| IgG1 antibody (not identified) with L234A/L235A/P329G and Y436A in both Fc-region polypeptides | – | FcRn-affinity column retention time [2]: 41.3 min |
| bispecific antibody (not identified, knobs-into-holes), one chain with I253A/H310A/H435A | 46.6 | – |
| IgG1 antibody (not identified) with L234A/L235A/P329G and I253A in both Fc-region polypeptides | – | relative shift of retention time [1]: 0.3 to 0.4 min |
